Experimental data as given in patent publication US20130171178A1 (US Dept. of Health and Human Services, published 2013).

Each binder was assayed against HLA-A2 MHC class I molecule (human) (assay: T2 binding assay, surface HLA-A2 by flow cytometry (BB7.2)).

Row | Binder | F.I.50 [µM]
1 | ATRVPEVWIL (Synthetic 10-mer) [xage-1 33 peptide] | > 50
2 | HTASPRSPVM (Synthetic 10-mer) [xage-1 57 peptide] | > 50

These binders were tested against HLA-A2 MHC class I molecule (human) (assay: T2 binding assay, surface HLA-A2 by flow cytometry).
Protocol: Binding affinity to HLA-A2 of synthetic peptides derived from the XAGE-1 amino acid sequence was measured by using T2 cells. The T2 cell line is a T-B fusion hybridoma cell line deficient in TAP1 and TAP2 gene expression available from the ATCC under accession number CRL-1992. T2 cells suspended in Dulbecco's modified Eagles' medium (DMEM) containing 2.5% fetal calf serum (FCS) were incubated overnight with different concentrations of the peptides and 10 μg/ml of β2-microglobulin. The cells were washed twice with phosphate buffered saline (PBS) containing 2% FCS and incubated on ice with anti-HLA-A2 monoclonal antibody (BB7.2, produced by ATCC cell line HB-82) for 30 min. After a single wash, the cells were stained with FITC-labeled goat anti-mouse Ig antibody for 30 min on ice. The cells were washed twice, and expression of HLA-A2 was measured by flow cytometry. The expression level of HLA-A2 was determined as follows: mean fluorescent index (F.I.)=(mean fluorescent intensity of the sample with peptide−mean fluorescent intensity of the sample without peptide)/mean fluorescent intensity of the sample without peptide; mean fluorescent intensity=geometric mean fluorescent intensity of the sample stained with both 1st and 2nd antibody−geometric mean fluorescent intensity of the sample stained with 2nd antibody alone.
A series of peptides derived from xage-1 14 were discovered with enhanced binding to HLA-A2.

Row | Binder | FI50 [µM]
3 | YLFPSAPSPV [1Y2L xage-1 14] | 3.04
4 | GLFPSAPSPV [2L xage-1 14] | 1.86
5 | YVFPSAPSPV [1Y xage-1 14] | 2.36
6 | GVMPSAPSPV [3M xage-1 14] | 0.28
7 | GLMPSAPSPV [2L3M xage-1 14] | 0.62
